First the molecules themselves.
B1: B3-C11 (VHH)
VHH: EVQLVESGGGLVQAGGSLRLSCFVSGSTFSASLMGWYRQAPGKERELVAGISNIGNTVYADSAKGRFTISRDGAKNTVHLQMNALKPEDTAVYYCYATVPRAAWGQGTQVTVSS
B2: B2-A6 (VHH)
VHH: QLQLVESGGGLVQAGGSLRLSCFVSGSTFSASLMGWYRQAPGKERELVAGISNIGNTVYADSAKGRFTISRDGAKNTVHLQMNALKPEDTAVYYCYATVPRAAWGQGTQVTVSS
B3: B1-G8 (VHH)
VHH: QVQLVESGGGLVQTGDSLRLSCVAPGISFSNRGMAWYRQAPGKQRELVAAIDSAGSQRYAGSVKDRFTISRDNAKNTVFLQMNSLKPEDTAVYYCNQPRFNLWGQGTQVTVSS
B4: B2-F10 (VHH)
VHH: QVQLVESGGGLVQAGGSLRLSCGASGSAVSITLMAWYRQAPGKQRELVAGISNIGDTNYVDSVKDRFTISRINAKNAMYLQMNSLKPEDTAVYYCFAQDWGGHHYWGQGTQVTVSS
B5: B4-D3 (VHH)
VHH: QLQLVESGGGLVQPGGSLRLSCVASGASGISFSNRGMAWYRQAPGKQRELVAAIDSAGSPAYAGSVKGRFTISRDNAKNTVFLQMNSLKPEDTAVYYCNQPRFNLWGLGTQVTVSS
B6: B1-G3 (VHH)
VHH: EVQVVESGGGLVQPGGSLRLSCVASMPSGISFSNRGMAWYRQAPGKQRELVAAIDSAGSTRYQDSVKGRFTISRDNAKNTVFLQMNSLKPEDTAVYYCNQPAFKAWGQGTQVTVSS
B7: B4-C11 (VHH)
VHH: QVQLVESGGGLVQAGGSLRLSCAASGSTFSNVVAGWYRQAPGKQRELVAGISNIGDTRYADSVKGRFTISRDNAKKAVYLQMNSLKPEDTAVYYCYAKYWARDYWGQGTQVTVSS
B8: B3-H7 (VHH)
VHH: EVQVVESGGGLVQAGGSLRLSCAASGSTAINSVAGWYRQAPGKQRELVAGISNIGDTRYADSVKGRFTISRDNAKKTVYLQMNSLKSEDTAVYYCYAKYWARDYWGQGTQVTVSS
B9: B1-H9 (VHH)
VHH: EVQLVESGGDLVQAGGSLRLSCAASGSTFSSTIAGWYRQAPGKQRELVAGISNIGDTRYADSVKGRFTISRDNAKKTVYLQMNSLKPEDTAVYYCYAKYWARDYWGQGTQVTVSS
B10: B2-E2 (VHH)
VHH: EVQLVESGGGLVQPGESLRLSCVASGFPSGFTFSDYQMYWYRQAPGKERELVAIISNDGLRKTYADSVKGRFTISRDNAKNTMFLQMNSLKPEDTAVYVCNVRRANRDDWGQGTQVTVSS

Sequence of BSA (P02769 25-607 limits assumed): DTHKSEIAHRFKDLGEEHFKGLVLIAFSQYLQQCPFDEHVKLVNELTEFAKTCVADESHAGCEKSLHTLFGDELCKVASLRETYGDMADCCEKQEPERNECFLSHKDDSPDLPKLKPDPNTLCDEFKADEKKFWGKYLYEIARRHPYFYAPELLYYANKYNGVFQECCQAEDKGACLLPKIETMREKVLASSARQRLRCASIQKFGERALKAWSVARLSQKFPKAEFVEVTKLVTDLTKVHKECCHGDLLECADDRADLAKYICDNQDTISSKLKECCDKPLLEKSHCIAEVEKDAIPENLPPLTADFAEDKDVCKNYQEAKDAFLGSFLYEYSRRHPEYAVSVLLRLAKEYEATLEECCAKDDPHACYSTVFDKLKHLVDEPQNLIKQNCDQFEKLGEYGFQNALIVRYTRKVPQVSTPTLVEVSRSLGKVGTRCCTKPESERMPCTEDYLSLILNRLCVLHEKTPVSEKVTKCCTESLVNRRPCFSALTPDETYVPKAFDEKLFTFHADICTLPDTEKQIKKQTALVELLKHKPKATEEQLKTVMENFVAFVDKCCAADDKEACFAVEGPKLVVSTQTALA

The experiment addresses BSA (UniProt P02769). Briefly: ELISA, BSA coated (control), E. coli supernatant, anti-VHH-HRP.
As for B1, the OD Value Obtained after Binding to BSA was 0.071 OD 450 nm.

Turning to B2, the OD Value Obtained after Binding to BSA worked out at 0.049 OD 450 nm.

In the case of B3, the OD Value Obtained after Binding to BSA amounted to 0.065 OD 450 nm.

B4 gave an OD Value Obtained after Binding to BSA of 0.063 OD 450 nm.

B5: the OD Value Obtained after Binding to BSA is 0.059 OD 450 nm.

Regarding B6, the OD Value Obtained after Binding to BSA is 0.067 OD 450 nm.

B7 yielded an OD Value Obtained after Binding to BSA of 0.071 OD 450 nm.

Take B8: the OD Value Obtained after Binding to BSA came to 0.056 OD 450 nm.

In the case of B9, the OD Value Obtained after Binding to BSA was determined as 0.058 OD 450 nm.

Molecule B10 showed an OD Value Obtained after Binding to BSA of 0.07 OD 450 nm.

Source of the values: patent publication US20240425575A1.
